Reference: IntAct's records for PubMed 35512704

B1: Mothers against decapentaplegic homolog 4 (Homo sapiens), Q13485 (parent)
chain: MDNMSITNTPTSNDACLSIVHSLMCHRQGGESETFAKRAIESLVKKLKEKKDELDSLITAITTNGAHPSKCVTIQRTLDGRLQVAGRKGFPHVIYARLWRWPDLHKNELKHVKYCQYAFDLKCDSVCVNPYHYERVVSPGIDLSGLTLQSNAPSSMMVKDEYVHDFEGQPSLSTEGHSIQTIQHPPSNRASTETYSTPALLAPSESNATSTANFPNIPVASTSQPASILGGSHSEGLLQIASGPQPGQQQNGFTGQPATYHHNSTTTWTGSRTAPYTPNLPHHQNGHLQHHPPMPPHPGHYWPVHNELAFQPPISNHPAPEYWCSIAYFEMDVQVGETFKVPSSCPIVTVDGYVDPSGGDRFCLGQLSNVHRTEAIERARLHIGKGVQLECKGEGDVWVRCLSDHAVFVQSYYLDREAGRAPGDAVHKIYPSAYIKVFDLRQCHRQMQQQAATAQAAAAAQAAAVAGNIPGPGSVGGIAPAISLSAAAGIGVDDLRRLCILRMSFVKGWGPDYPRQSIKETPCWIEIHLHRALQLLDEVLHTMPIADPQPLD
partner: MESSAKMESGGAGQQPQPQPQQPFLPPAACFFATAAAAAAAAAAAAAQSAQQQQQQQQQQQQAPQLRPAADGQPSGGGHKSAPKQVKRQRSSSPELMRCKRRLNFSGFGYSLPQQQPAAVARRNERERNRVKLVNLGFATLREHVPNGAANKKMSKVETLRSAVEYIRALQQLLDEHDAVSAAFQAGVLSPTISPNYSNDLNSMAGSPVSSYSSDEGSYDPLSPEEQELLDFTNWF
B2: Mothers against decapentaplegic homolog 4 (Homo sapiens), Q13485 (parent)
chain: B1 chain
partner: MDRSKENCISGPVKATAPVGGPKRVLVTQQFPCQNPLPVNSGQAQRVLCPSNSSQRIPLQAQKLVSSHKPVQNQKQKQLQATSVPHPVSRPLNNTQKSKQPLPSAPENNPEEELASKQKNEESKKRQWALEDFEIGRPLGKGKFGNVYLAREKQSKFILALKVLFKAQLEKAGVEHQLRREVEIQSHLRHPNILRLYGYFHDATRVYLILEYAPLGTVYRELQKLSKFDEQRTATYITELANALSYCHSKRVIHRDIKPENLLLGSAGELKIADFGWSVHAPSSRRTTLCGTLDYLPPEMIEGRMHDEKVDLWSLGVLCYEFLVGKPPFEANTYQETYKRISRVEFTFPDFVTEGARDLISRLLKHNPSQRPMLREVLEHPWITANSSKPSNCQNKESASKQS
B3: Mothers against decapentaplegic homolog 4 (Homo sapiens), Q13485 (parent)
chain: B1 chain
partner: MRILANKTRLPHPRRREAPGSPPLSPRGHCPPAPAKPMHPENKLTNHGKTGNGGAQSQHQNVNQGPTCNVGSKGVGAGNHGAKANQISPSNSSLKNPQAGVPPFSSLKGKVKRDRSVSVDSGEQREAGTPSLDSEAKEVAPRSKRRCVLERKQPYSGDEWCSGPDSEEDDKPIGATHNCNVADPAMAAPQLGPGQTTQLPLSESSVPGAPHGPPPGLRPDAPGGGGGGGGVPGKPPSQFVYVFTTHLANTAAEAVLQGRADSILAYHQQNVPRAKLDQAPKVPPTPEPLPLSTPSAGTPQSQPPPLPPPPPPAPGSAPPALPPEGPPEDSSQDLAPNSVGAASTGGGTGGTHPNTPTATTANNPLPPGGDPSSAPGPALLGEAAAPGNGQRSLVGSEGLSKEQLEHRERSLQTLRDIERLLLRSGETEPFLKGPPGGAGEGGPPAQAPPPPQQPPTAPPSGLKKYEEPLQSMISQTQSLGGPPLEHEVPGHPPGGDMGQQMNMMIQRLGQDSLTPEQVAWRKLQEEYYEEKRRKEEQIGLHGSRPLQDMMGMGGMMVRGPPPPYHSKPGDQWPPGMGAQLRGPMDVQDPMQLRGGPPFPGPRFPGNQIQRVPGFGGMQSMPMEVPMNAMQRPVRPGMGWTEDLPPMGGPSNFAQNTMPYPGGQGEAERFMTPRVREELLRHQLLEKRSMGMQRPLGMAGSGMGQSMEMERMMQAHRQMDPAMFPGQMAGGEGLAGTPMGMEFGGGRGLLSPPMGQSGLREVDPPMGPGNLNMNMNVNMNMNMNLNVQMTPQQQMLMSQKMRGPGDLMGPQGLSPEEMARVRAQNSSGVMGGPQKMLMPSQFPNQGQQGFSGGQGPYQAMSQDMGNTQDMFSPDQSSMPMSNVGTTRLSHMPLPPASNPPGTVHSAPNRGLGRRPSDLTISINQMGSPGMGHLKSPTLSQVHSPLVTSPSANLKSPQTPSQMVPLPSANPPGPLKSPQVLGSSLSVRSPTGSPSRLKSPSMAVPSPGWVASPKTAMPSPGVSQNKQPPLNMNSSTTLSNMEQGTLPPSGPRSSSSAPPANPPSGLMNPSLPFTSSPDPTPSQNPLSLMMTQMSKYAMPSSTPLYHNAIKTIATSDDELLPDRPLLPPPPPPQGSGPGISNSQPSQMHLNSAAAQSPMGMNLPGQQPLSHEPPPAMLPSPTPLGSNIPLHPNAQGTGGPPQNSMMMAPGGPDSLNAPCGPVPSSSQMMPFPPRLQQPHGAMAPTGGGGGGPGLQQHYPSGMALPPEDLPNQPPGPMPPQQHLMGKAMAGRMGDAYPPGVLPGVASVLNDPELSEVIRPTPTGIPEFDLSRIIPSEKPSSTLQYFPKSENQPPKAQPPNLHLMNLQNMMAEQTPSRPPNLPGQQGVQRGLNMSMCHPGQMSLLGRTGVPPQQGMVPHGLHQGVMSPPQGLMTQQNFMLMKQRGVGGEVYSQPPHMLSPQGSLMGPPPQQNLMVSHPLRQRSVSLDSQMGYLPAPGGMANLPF
B4: Mothers against decapentaplegic homolog 4 (Homo sapiens), Q13485 (parent)
chain: B1 chain
partner: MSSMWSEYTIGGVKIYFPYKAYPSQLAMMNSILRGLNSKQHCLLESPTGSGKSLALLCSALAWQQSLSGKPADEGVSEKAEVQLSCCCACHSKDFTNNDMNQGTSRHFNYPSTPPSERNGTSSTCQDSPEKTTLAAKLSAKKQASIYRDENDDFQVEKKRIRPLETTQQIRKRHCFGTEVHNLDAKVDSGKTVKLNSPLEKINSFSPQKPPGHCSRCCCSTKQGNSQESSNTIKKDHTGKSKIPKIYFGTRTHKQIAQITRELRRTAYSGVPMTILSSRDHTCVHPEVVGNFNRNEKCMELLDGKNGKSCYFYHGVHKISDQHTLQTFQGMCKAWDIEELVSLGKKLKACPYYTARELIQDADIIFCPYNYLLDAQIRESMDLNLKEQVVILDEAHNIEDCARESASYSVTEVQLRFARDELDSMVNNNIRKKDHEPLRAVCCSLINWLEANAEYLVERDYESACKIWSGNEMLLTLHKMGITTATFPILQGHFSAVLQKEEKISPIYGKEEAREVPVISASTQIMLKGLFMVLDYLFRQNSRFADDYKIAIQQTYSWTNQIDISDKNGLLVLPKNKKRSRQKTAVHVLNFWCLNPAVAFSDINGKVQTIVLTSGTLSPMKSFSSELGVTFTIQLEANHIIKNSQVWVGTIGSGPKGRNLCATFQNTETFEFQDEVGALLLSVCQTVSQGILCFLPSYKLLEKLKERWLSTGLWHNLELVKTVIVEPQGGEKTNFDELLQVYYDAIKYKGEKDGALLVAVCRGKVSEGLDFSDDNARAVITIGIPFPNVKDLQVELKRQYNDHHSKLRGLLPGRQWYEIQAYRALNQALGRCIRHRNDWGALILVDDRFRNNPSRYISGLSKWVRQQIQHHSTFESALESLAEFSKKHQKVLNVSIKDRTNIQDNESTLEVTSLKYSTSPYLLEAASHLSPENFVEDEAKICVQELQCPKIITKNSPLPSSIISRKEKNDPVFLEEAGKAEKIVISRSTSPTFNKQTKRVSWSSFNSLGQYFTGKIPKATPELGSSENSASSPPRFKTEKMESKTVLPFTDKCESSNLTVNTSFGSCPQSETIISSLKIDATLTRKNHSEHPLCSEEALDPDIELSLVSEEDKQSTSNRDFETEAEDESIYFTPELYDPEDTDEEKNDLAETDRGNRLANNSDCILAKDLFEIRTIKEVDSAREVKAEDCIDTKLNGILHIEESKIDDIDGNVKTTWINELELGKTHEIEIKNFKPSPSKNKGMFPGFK
B5: Mothers against decapentaplegic homolog 4 (Homo sapiens), Q13485 (parent)
chain: B1 chain
partner: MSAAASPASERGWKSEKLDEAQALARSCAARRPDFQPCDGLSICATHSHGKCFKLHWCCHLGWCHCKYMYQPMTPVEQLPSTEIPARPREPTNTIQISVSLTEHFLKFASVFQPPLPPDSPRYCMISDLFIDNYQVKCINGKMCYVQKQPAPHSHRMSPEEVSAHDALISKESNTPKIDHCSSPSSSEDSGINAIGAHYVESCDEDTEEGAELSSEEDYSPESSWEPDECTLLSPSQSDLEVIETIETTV
B6: Mothers against decapentaplegic homolog 4 (Homo sapiens), Q13485 (parent)
chain: B1 chain
partner: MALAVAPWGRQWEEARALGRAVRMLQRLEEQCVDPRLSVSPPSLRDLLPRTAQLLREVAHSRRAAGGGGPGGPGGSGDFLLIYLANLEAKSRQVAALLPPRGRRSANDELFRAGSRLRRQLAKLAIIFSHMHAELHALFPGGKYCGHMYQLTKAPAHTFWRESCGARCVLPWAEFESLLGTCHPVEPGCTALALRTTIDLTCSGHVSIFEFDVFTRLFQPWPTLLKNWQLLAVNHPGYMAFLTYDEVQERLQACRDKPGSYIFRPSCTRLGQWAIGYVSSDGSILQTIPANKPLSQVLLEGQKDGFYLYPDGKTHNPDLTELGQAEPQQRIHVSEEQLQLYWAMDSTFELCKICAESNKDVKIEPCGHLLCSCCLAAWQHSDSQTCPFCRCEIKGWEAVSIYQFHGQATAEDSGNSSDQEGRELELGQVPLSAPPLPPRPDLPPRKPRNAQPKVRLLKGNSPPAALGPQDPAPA

Variants of: B1
Conditions: with ascl1_human ASCL1, P50553

Variant | effect of a mutation on the interaction
D351H | with no effect

Variants of: B1
Conditions: with ascl1_human ASCL1, P50553
Remark: another data set of the same source

Variant | effect of a mutation on the interaction
G386D | with no effect

Variants of: B1
Conditions: with ascl1_human ASCL1, P50553
Remark: another data set of the same source

Variant | effect of a mutation on the interaction
R361C | with no effect

Variants of: B1
Conditions: with ascl1_human ASCL1, P50553
Remark: another data set of the same source

Variant | effect of a mutation on the interaction
R361H | with no effect

Variants of: B2
Conditions: with aurka_human AURKA

Variant | effect of a mutation on the interaction
D351H | with no effect

Variants of: B2
Conditions: with aurka_human AURKA
Remark: another data set of the same source

Variant | effect of a mutation on the interaction
G386D | with no effect

Variants of: B2
Conditions: with aurka_human AURKA
Remark: another data set of the same source

Variant | effect of a mutation on the interaction
R361C | with no effect

Variants of: B2
Conditions: with aurka_human AURKA
Remark: another data set of the same source

Variant | effect of a mutation on the interaction
R361H | with no effect

Variants of: B3
Conditions: with bcl9l_human BCL9L

Variant | effect of a mutation on the interaction
D351H | with no effect

Variants of: B3
Conditions: with bcl9l_human BCL9L
Remark: another data set of the same source

Variant | effect of a mutation on the interaction
G386D | with no effect

Variants of: B3
Conditions: with bcl9l_human BCL9L
Remark: another data set of the same source

Variant | effect of a mutation on the interaction
R361C | with no effect

Variants of: B3
Conditions: with bcl9l_human BCL9L
Remark: another data set of the same source

Variant | effect of a mutation on the interaction
R361H | with no effect

Variants of: B4
Conditions: with fancj_human BRIP1, Q9BX63

Variant | effect of a mutation on the interaction
D351H | with no effect

Variants of: B4
Conditions: with fancj_human BRIP1, Q9BX63
Remark: another data set of the same source

Variant | effect of a mutation on the interaction
G386D | with no effect

Variants of: B5
Conditions: with cc070_human C3orf70, A6NLC5

Variant | effect of a mutation on the interaction
D351H | with no effect

Variants of: B5
Conditions: with cc070_human C3orf70, A6NLC5
Remark: another data set of the same source

Variant | effect of a mutation on the interaction
G386D | with no effect

Variants of: B5
Conditions: with cc070_human C3orf70, A6NLC5
Remark: another data set of the same source

Variant | effect of a mutation on the interaction
R361C | with no effect

Variants of: B5
Conditions: with cc070_human C3orf70, A6NLC5
Remark: another data set of the same source

Variant | effect of a mutation on the interaction
R361H | with no effect

Variants of: B6
Conditions: with cblc_human CBLC

Variant | effect of a mutation on the interaction
D351H | with no effect

Variants of: B6
Conditions: with cblc_human CBLC
Remark: another data set of the same source

Variant | effect of a mutation on the interaction
G386D | with no effect

Variants of: B6
Conditions: with cblc_human CBLC
Remark: another data set of the same source

Variant | effect of a mutation on the interaction
R361C | with no effect

Variants of: B6
Conditions: with cblc_human CBLC
Remark: another data set of the same source

Variant | effect of a mutation on the interaction
R361H | with no effect
